In this series the target is AGO2 (UniProt Q9UKV8). The series can be described thus: MST. The conditions noted are these: MST: labeled protein 5-150 nM, ligand 1E-10 to 1E-5 M, 5-15 min, buffer and temperature not stated, pull-down: 150 mM NaCl, 50 mM Tris pH 7.4, 1% Triton X-100 ….
Chain of AGO2 (Q9UKV8 whole entry): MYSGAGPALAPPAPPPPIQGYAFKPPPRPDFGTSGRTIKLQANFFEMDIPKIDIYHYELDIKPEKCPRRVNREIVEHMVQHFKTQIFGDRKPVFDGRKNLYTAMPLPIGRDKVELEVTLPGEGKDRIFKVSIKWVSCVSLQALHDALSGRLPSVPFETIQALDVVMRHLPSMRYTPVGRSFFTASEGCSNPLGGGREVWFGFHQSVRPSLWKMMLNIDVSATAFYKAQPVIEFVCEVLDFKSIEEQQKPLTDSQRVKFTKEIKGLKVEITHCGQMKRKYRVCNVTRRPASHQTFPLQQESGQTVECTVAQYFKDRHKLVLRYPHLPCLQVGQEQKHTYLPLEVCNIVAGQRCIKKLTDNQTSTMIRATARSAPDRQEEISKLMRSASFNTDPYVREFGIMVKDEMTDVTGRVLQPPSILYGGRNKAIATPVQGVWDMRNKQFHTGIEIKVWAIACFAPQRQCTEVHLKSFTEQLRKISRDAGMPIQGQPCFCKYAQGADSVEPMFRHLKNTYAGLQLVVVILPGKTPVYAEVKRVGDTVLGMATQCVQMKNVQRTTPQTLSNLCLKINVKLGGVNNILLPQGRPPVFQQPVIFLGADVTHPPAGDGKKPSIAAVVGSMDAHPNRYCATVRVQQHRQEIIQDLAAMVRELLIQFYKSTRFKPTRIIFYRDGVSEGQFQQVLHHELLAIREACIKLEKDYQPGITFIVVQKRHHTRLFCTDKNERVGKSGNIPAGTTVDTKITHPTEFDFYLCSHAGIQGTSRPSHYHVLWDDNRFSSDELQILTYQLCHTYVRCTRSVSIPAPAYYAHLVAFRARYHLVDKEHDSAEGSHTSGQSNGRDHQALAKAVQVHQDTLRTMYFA

Consider 3p-hpRNA (5'ppp hairpin RNA), for which the dissociation constant Kd (no competitor, 5'-triphosphate) was determined as 205 nM. This counts as sub-micromolar.

In turn, 5'ppp-dsRNA Control (dsRNA control) displayed a Kd (no 5'-triphosphate) of 2200 nM.

The substance 5'ppp-dsRNA came in with a Kd (5'-triphosphate) of 2200 nM. In other words, the single-digit micromolar range.

In general, Kd refers to the free concentration of one partner at which half of the binding sites on the other are occupied at equilibrium, for simple one-to-one binding. The low end stands for tighter binding, the high end for weaker binding.

These data come from publication PMC12424427.
